Data as given in patent publication CN113754775A (SUNSHINE GUOJIAN PHARMACEUTICAL SHANGHAI CO LTD, dated 2021).

Target: T1, PDL1-ECD-his (human, UniProt Q9NZQ7 19-238)
T1 construct: extracellular domain; Made in HEK-293F
Experiment: ELISA, PDL1-ECD-his coated, anti-human IgG Fc-HRP

T1 sequence (Q9NZQ7 other isoform, or with tags, fused parts or gaps): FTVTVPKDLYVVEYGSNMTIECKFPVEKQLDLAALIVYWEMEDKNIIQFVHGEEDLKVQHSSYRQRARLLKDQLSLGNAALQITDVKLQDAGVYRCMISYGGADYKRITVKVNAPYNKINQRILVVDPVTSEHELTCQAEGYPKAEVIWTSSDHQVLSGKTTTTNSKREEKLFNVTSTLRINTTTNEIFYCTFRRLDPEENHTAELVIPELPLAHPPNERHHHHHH

- binding result: binds
B1: 抗人PD-L1抗体M8 (antibody, V domains shown)
VH: QVQLQQSGGGLVKPSQSLSLTCTVSGFSLTSYGVHWVRQPPGKGLEWIGLIWSGGGTDYNPSLKSRLTISRDTSKNQVSFKISSLTAADTAVYYCARQLGLRAMDYWGQGTSVTVSS
VL: EIVLTQSPDFLSVTPKEKVTITCRASQSIGTTIHWYQQKPDQSPKLLIKYASQSFSGVPSRFSGSGSGTDFTLTINSVEAEDAATYYCQQSNSWPLTFGAGTKLEIK
notes: Whole monoclonal antibody with two heavy and two light chains, made in HEK293F; also called anti-human PD-L1 antibody M8
